These results are taken from patent US20040175362A1.

Bounds are passed on as bounds.

The target of this experiment is coxsackie-adenovirus receptor (CAR) (human) (UniProt P78310). In words: cell-based or functional assay.
UniProt P78310, sequence (P78310 20-365): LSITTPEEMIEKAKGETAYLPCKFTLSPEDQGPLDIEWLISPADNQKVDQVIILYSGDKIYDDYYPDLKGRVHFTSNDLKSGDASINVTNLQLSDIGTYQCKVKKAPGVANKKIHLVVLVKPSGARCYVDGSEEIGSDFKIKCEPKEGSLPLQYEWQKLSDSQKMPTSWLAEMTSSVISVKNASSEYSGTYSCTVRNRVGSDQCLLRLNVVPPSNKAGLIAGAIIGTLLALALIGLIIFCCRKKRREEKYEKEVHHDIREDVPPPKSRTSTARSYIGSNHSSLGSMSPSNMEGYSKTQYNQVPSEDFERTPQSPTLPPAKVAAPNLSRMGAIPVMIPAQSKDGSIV

On to “RGD-modified Ad5 fiber (… in the HI loop of the knob) as carried by the virions of Ad5lucRGD (from UniProt P11818 1-546; P11818 547-581)”, for which the gene expression blocked by recombinant Ad5 fiber knob, Ad5lucRGD on 293 cells fell in the range of 40 to 60%; the gene transfer blocked by knob protein, Ad5lucRGD on primary ovarian cancer cells, MOI 1 pfu/cell was 20%; the luciferase activity blocked by purified fiber knob, Ad5lucRGD on SKOV3.1p1 cells came out at 20%.

For the substance “wild type Ad5 fiber as carried by the virions of AdCMVLuc (from UniProt P11818 1-581)”, the gene transfer blocked by purified fiber knob, AdCMVLuc on SKOV3.1p1 cells was > 90% and the luciferase activity blocked by recombinant Ad5 fiber knob, AdCMVLuc on 293 cells was 85 to 93%.
